Publication PMC4256486 (Molecular & Cellular Proteomics : MCP, 2014)

How the values were obtained:
[1] = molecular target: human ephrin type-A receptor 2 (EphA2), ectopically expressed on CHO cells (Homo sapiens, UniProt P29317); assay: flow cytometry on cells
[2] = molecular target: Lgr5 (control), ectopically expressed on CHO cells (Homo sapiens (assumed), UniProt O75473); assay: flow cytometry on cells
Lgr5 (control), ectopically expressed on CHO cells, sequence (O75473 22-907): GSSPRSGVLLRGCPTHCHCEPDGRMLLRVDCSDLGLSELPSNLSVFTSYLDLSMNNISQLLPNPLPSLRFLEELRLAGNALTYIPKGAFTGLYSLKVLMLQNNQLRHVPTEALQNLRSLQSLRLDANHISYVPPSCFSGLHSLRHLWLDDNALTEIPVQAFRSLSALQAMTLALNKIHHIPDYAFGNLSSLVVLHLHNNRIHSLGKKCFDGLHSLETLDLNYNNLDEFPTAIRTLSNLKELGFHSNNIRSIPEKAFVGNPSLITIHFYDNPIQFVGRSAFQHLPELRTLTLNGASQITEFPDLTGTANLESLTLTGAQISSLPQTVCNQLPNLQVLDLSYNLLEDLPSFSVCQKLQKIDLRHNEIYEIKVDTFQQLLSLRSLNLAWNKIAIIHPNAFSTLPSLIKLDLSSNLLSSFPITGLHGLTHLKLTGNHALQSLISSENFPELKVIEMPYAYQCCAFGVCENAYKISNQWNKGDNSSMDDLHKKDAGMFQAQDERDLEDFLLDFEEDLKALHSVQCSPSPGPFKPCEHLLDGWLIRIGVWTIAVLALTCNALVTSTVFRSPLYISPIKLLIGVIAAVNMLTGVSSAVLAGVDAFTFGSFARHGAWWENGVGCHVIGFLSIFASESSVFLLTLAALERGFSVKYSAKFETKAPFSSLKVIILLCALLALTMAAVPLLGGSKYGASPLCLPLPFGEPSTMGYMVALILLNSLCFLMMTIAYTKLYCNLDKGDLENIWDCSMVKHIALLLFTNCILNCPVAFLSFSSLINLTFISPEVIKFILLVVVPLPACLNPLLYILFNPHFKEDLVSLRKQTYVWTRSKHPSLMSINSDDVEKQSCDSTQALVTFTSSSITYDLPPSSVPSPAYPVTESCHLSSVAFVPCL

human ephrin type-A receptor 2 (EphA2), ectopically expressed on CHO cells, sequence (P29317 24-976): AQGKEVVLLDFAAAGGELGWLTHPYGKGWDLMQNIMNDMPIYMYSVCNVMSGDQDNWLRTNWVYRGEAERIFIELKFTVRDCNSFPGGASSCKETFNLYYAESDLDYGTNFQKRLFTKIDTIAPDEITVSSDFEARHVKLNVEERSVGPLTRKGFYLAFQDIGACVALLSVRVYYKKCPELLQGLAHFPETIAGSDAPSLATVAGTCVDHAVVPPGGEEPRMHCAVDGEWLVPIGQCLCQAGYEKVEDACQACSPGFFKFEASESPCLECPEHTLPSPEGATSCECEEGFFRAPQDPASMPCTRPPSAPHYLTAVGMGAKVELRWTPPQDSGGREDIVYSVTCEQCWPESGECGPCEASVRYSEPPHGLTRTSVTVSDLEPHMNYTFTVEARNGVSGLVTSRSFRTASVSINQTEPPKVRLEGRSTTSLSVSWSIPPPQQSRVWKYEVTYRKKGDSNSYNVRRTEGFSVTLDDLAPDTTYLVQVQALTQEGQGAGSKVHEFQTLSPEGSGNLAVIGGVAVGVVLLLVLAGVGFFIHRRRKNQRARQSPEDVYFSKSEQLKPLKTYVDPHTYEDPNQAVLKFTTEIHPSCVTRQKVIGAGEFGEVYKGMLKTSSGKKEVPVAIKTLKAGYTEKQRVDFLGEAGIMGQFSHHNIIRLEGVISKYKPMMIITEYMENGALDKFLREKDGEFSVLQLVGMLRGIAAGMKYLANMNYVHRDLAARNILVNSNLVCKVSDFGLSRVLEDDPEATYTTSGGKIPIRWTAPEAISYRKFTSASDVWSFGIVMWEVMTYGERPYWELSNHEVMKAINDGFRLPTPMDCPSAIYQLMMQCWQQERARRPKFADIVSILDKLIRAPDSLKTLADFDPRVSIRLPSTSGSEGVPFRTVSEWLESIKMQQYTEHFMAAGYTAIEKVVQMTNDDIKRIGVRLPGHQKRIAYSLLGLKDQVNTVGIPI

B1: IgG HCA-F1 (antibody, V domains shown)
VH: QVQLQESGGGLVQPGGSLRLSCAASGFTFSSYSMNWVRQAPGKGLEWVSYISSSSSTIYYADSVKGRFTISRDNAKNSLYLQMNSLRAEDTAVYYCARYRLPDFWSGYPNYGMDVWGQGTTVTVSS
VL: QSVLTQPPSVSGAPGQRVTISCTGSSSNIGAGYDVHWYQQLPGTAPKLLIYGNSNRPSGVPDRFSGSKSGTSASLAITGLQAEDEADYYCQSYDSSLSGHVVFGGGTKLTVL
[1]
  binding result: binds
[2]
  binding result: no binding
